Source: article PMC10362037

Target: SARS-CoV-2 (2019-nCov) Spike S1 (Abclonal, RP01262) (SARS-CoV-2) (UniProt P0DTC2)
Assay: SPR

## Human integrin αvβ3 (R&D Systems, 3817-AV-050) (from UniProt P06756 31-1048; P05106 27-718) (complex)
  Kd: 0.0404 µM

## suPAR (purified protein of the SPR assay) (from UniProt Q03405 23-305) (natural protein)
  Kd: > 2000 µM
